# B1: OT-001792: CD8α leader; Linker (RS); ER (L384M, M421G, G521R, Y537S); Furin cleavage site; CD19 CAR; SEQ ID NO. 406 (protein)
# chain: MALPVTALLLPLALLLHAARPRSSLALSLTADQMVSALLDAEPPILYSEYDPTRPFSEASMMGLLTNLADRELVHMINWAKRVPGFVDLTLHDQVHLLECAWMEILMIGLVWRSMEHPGKLLFAPNLLLDRNQGKCVEGGVEIFDMLLATSSRFRMMNLQGEEFVCLKSIILLNSGVYTFLSSTLKSLEEKDHIHRVLDKITDTLIHLMAKAGLTLQQQHQRLAQLLLILSHIRHMSNKRMEHLYSMKCKNVVPLSDLLLEMLDAHRLGTGAEDPRPSRKRRSLGDVGEIVMTQSPATLSLSPGERATLSCRASQDISKYLNWYQQKPGQAPRLLIYHTSRLHSGIPARFSGSGSGTDYTLTISSLQPEDFAVYFCQQGNTLPYTFGQGTKLEIKGGGGSGGGGSGGGGSQVQLQESGPGLVKPSETLSLTCTVSGVSLPDYGVSWIRQPPGKGLEWIGVIWGSETTYYSSSLKSRVTISKDNSKNQVSLKLSSVTAADTAVYYCAKHYYYGGSYAMDYWGQGTLVTVSSTTTPAPRPPTPAPTIASQPLSLRPEACRPAAGGAVHTRGLDFACDIYIWAPLAGTCGVLLLSLVITLYCKRGRKKLLYIFKQPFMRPVQTTQEEDGCSCRFPEEEEGGCELRVKFSRSADAPAYKQGQNQLYNELNLGRREEYDVLDKRRGRDPEMGGKPRRKNPQEGLYNELQKDKMAEAYSEIGMKGERRRGKGHDGLYQGLSTATKDTYDALHMQALPPR
# How the values were obtained:
# Type in all cases: cell-based, human
# primary T cells = assay: CD19 CAR expression on lentivirus transduced primary T cells (flow cytometry with CD19-Fc); conditions: for CAR expression, % positive: day 7 of T cell expansion
# Experimental: (§1) Primary T cells were activated with CD3/CD28 Dynabeads at 3:1 Bead: Cell ratio overnight, then transduced with OT-001792 lentivirus. On day 7 of the T cell expansion, CAR expression was measured by flow cytometry with CD19-Fc on cells treated overnight in the presence (34% positive) or absence (0.6% positive) of 1 μM Bazedoxifene. After the T cells had expanded for 10 days, they were mixed with CD19-expressing Nalm6 target cells at ratios of 10:1 and 2.5:1 total T cells:Nalm6 cells and cultured for 3 days.
# Primary T cells were activated with CD3/CD28 Dynabeads at 3:1 Bead:Cell ratio overnight, then transduced with lentiviruses derived from the indicated constructs. On day 7 or day 9 (as indicated) of the T cell expansion, CAR expression was measured by flow cytometry with CD19-Fc on cells incubated for 24 hours with 1 μM Bazedoxifene or 1 μM Raloxifene or DMSO. […] At day 9 the basal percentage of CAR positive cells for the same constructs was even lower at approximately 20% i.e. in the absence of ligand and about 32-45% in the presence of either ligand. […] This was true at both day 7 and day 9.
# Human donor T cells were thawed and activated overnight in the presence of CD3/CD28 Dynabeads at 3:1 bead:cell ratio, then transduced with lentivirus related to OT-002158, or OT-001786. Cells were expanded over the course of 10 days, with fresh media added to maintain cells at around 0.5×10^6 cells/mL. On day 9, an aliquot of cells was removed, and treated with 1 μM Bazedoxifene overnight or DMSO vehicle control, then stained with 10 μg/mL CD19-Fc. Histograms showing CAR expression from a Live Singlet cell gate were plotted.
# Human donor T cells were thawed and activated overnight in the presence of CD3/CD28 Dynabeads at 3:1 bead:cell ratio, then transduced with lentivirus from the constructs. Cells were expanded over the course of 10 days, and fresh media was added to maintain cells around 0.5×10^6 cells/ml. On day 9, an aliquot of cells were removed, treated with 1 μM Bazedoxifene overnight, then stained with 10 μg/mL CD19-Fc. Histograms showing CAR expression from a Live Singlet cell gate were plotted. The data are shown in Table 19 and Table 20 where data are presented as % CAR positive cells, where SR indicates stabilization ration.
# T cells were transduced with OT-00179, OT-002158, OT-001407 or empty vector and expanded as described herein, frozen on day 10. To confirm the expression and function of this large scale expansion for in vivo use, cells were thawed and incubated overnight in the presence of CD3/28 beads (1:1 bead:cell ratio) and with or without 1 μM Bazedoxifene. FACS staining with 1 μg/mL CD19-Fc was performed to measure the surface expression of CD19-CAR. The data are provided in Table 21 as the percentage CAR positive cells.
# Nalm6 target cells [1] = assay: Nalm6 target cell killing by CAR T cells (Incucyte)
# Experimental: as §1
# (§2) To measure Interferon gamma production, T cells transduced with the constructs OT-00179, OT-002158, OT-001407 or empty vector were thawed and co-cultured with Nalm6 target cells (stably expressing NucRed®) at different ratios of transduced T cells (herein referred to as the Effector) and Nalm 6 cells (herein referred to as the Target). Target cell viability was determined by measuring cellular fluorescence over time using the Incucyte instrument. Data presented in Table 22 are expressed as Nalm6 cell area at representative time points (0, 24, and 42 hour (hr)). The lower the numerical value of the Nalm6 area, the higher the cytotoxicity effected by the Effector cells.
# Nalm6 target cells [2] = assay: Interferon gamma in T cell/Nalm6 co-culture supernatants (MSD); conditions: co-culture supernatant at 42 hours
# Experimental: as §2
# Cell culture supernatants were collected from the T cell/Nalm6 cytotoxicity assay co-cultures at 42 hours. Interferon gamma was measured by MSD and is described in Table 23.
molecule,measurement,setting,value
B1,ligand dependent regulation of CAR expression (in words),"primary T cells; 1 μM Bazedoxifene or Raloxifene versus DMSO, day 7 or day 9",did not show any ligand dependent regulation of CAR expression
same,"% CAR positive cells, Bazedoxifene","primary T cells; Table 21, thawed cells, overnight with CD3/28 beads, 1 μM Bazedoxifene, 1 μg/mL CD19-Fc",39.6%
same,"% CAR positive cells, Vehicle","primary T cells; Table 21, thawed cells, overnight with CD3/28 beads, without Bazedoxifene, 1 μg/mL CD19-Fc",0.39%
same,"CAR expression, % positive",primary T cells; overnight in the absence of Bazedoxifene,0.6%
same,"CAR expression, % positive",primary T cells; overnight in the presence of 1 μM Bazedoxifene,34%
same,"Nalm 6 area, total target area","Nalm6 target cells [1]; 0 hr, Effector:Target 0.3:1, + 1 μM Bazedoxifene",57617.98
same,"Nalm 6 area, total target area","Nalm6 target cells [1]; 0 hr, Effector:Target 0.3:1, no ligand",71711.59
same,"Nalm 6 area, total target area","Nalm6 target cells [1]; 0 hr, Effector:Target 1:1, + 1 μM Bazedoxifene",67768.82
same,"Nalm 6 area, total target area","Nalm6 target cells [1]; 0 hr, Effector:Target 1:1, no ligand",62673.31
same,"Nalm 6 area, total target area","Nalm6 target cells [1]; 0 hr, Effector:Target 3:1, + 1 μM Bazedoxifene",54788.54
same,"Nalm 6 area, total target area","Nalm6 target cells [1]; 0 hr, Effector:Target 3:1, no ligand",60708.63
same,"Nalm 6 area, total target area","Nalm6 target cells [1]; 0 hr, Effector:Target 10:1, + 1 μM Bazedoxifene",55572.92
same,"Nalm 6 area, total target area","Nalm6 target cells [1]; 0 hr, Effector:Target 10:1, no ligand",57172.20
same,"Nalm 6 area, total target area","Nalm6 target cells [1]; 24 hr, Effector:Target 0.3:1, + 1 μM Bazedoxifene",94217.60
same,"Nalm 6 area, total target area","Nalm6 target cells [1]; 24 hr, Effector:Target 0.3:1, no ligand",123175.80
same,"Nalm 6 area, total target area","Nalm6 target cells [1]; 24 hr, Effector:Target 1:1, + 1 μM Bazedoxifene",103535.70
same,"Nalm 6 area, total target area","Nalm6 target cells [1]; 24 hr, Effector:Target 1:1, no ligand",104433.20
same,"Nalm 6 area, total target area","Nalm6 target cells [1]; 24 hr, Effector:Target 3:1, + 1 μM Bazedoxifene",67794.87
same,"Nalm 6 area, total target area","Nalm6 target cells [1]; 24 hr, Effector:Target 3:1, no ligand",105474.34
same,"Nalm 6 area, total target area","Nalm6 target cells [1]; 24 hr, Effector:Target 10:1, + 1 μM Bazedoxifene",40606.37
same,"Nalm 6 area, total target area","Nalm6 target cells [1]; 24 hr, Effector:Target 10:1, no ligand",93991.37
same,"Nalm 6 area, total target area","Nalm6 target cells [1]; 42 hr, Effector:Target 0.3:1, + 1 μM Bazedoxifene",143903.95
same,"Nalm 6 area, total target area","Nalm6 target cells [1]; 42 hr, Effector:Target 0.3:1, no ligand",197082.75
same,"Nalm 6 area, total target area","Nalm6 target cells [1]; 42 hr, Effector:Target 1:1, + 1 μM Bazedoxifene",133539.50
same,"Nalm 6 area, total target area","Nalm6 target cells [1]; 42 hr, Effector:Target 1:1, no ligand",171919.20
same,"Nalm 6 area, total target area","Nalm6 target cells [1]; 42 hr, Effector:Target 3:1, + 1 μM Bazedoxifene",58548.97
same,"Nalm 6 area, total target area","Nalm6 target cells [1]; 42 hr, Effector:Target 3:1, no ligand",180465.55
same,"Nalm 6 area, total target area","Nalm6 target cells [1]; 42 hr, Effector:Target 10:1, + 1 μM Bazedoxifene",25302.71
same,"Nalm 6 area, total target area","Nalm6 target cells [1]; 42 hr, Effector:Target 10:1, no ligand",156073.75
same,CD19-CAR mediated target cell killing,"Nalm6 target cells [1]; T cells:Nalm6 10:1 and 2.5:1, 3 days, with or without 1 μM Bazedoxifene",observed specifically in the presence of 1 μM Bazedoxifene
same,"IFN gamma levels, 1 μM Bazedoxifene",Nalm6 target cells [2]; 1 μM Bazedoxifene,7079.60 pg/mL
same,"IFN gamma levels, Vehicle",Nalm6 target cells [2]; vehicle,91.09 pg/mL

# From patent US20210386788A1, “ER TUNABLE PROTEIN REGULATION” (Obsidian Therapeutics, Inc., priority 2018, published 2021)
